Publication PMC8811885 (ACS Omega, 2022)

Biological target: the molecule itself
Assay: SEC-MALS

B1: human ELP1 with a C-terminal 3xFLAG tag (natural protein, UniProt O95163 1-1332, looked up)
chain: MRNLKLFRTLEFRDIQGPGNPQCFSLRTEQGTVLIGSEHGLIEVDPVSREVKNEVSLVAEGFLPEDGSGRIVGVQDLLDQESVCVATASGDVILCSLSTQQLECVGSVASGISVMSWSPDQELVLLATGQQTLIMMTKDFEPILEQQIHQDDFGESKFITVGWGRKETQFHGSEGRQAAFQMQMHESALPWDDHRPQVTWRGDGQFFAVSVVCPETGARKVRVWNREFALQSTSEPVAGLGPALAWKPSGSLIASTQDKPNQQDIVFFEKNGLLHGHFTLPFLKDEVKVNDLLWNADSSVLAVWLEDLQREESSIPKTCVQLWTVGNYHWYLKQSLSFSTCGKSKIVSLMWDPVTPYRLHVLCQGWHYLAYDWHWTTDRSVGDNSSDLSNVAVIDGNRVLVTVFRQTVVPPPMCTYQLLFPHPVNQVTFLAHPQKSNDLAVLDASNQISVYKCGDCPSADPTVKLGAVGGSGFKVCLRTPHLEKRYKIQFENNEDQDVNPLKLGLLTWIEEDVFLAVSHSEFSPRSVIHHLTAASSEMDEEHGQLNVSSSAAVDGVIISLCCNSKTKSVVLQLADGQIFKYLWESPSLAIKPWKNSGGFPVRFPYPCTQTELAMIGEEECVLGLTDRCRFFINDIEVASNITSFAVYDEFLLLTTHSHTCQCFCLRDASFKTLQAGLSSNHVSHGEVLRKVERGSRIVTVVPQDTKLVLQMPRGNLEVVHHRALVLAQIRKWLDKLMFKEAFECMRKLRINLNLIYDHNPKVFLGNVETFIKQIDSVNHINLFFTELKEEDVTKTMYPAPVTSSVYLSRDPDGNKIDLVCDAMRAVMESINPHKYCLSILTSHVKKTTPELEIVLQKVHELQGNAPSDPDAVSAEEALKYLLHLVDVNELYDHSLGTYDFDLVLMVAEKSQKDPKEYLPFLNTLKKMETNYQRFTIDKYLKRYEKAIGHLSKCGPEYFPECLNLIKDKNLYNEALKLYSPSSQQYQDISIAYGEHLMQEHMYEPAGLMFARCGAHEKALSAFLTCGNWKQALCVAAQLNFTKDQLVGLGRTLAGKLVEQRKHIDAAMVLEECAQDYEEAVLLLLEGAAWEEALRLVYKYNRLDIIETNVKPSILEAQKNYMAFLDSQTATFSRHKKRLLVVRELKEQAQQAGLDDEVPHGQESDLFSETSSVVSGSEMSGKYSHSNSRISARSSKNRRKAERKKHSLKEGSPLEDLALLEALSEVVQNTENLKDEVYHILKVLFLFEFDEQGRELQKAFEDTLQLMERSLPEIWTLTYQQNSATPVLGPNSTANSIMASYQQQKTSVPVLDAELFIPPKINRRTQWKLSLLD
- stoichiometry N: 2
